Source: the MegaScale stability set (Tsuboyama et al. 2023)

B1: r11_951_TrROS_Hall (parent)
chain: KKKYVIKVYFEDTGKEVEIEAESKEEALEAAKRLAEELGLKIKKVEIYP

Variants of: B1
Test: folding stability dG (cDNA display proteolysis); higher = more stable
Settings: PBS, room temperature

Variant	folding stability dG
KKKYVIKVYFEDTGKEVEIEAESKEEALEAAERLAEELGLKIKKVEIYP	4.28 kcal/mol
KKKYVIKVYFEDTGKEVEIEAESKEEALEAACRLAEELGLKIKKVEIYP	4.22 kcal/mol
KKKYVIKVYFEDTGKEVEIEAESKEEALEAAKRLAVELGLKIKKVEIYP	4.66 kcal/mol
KKKYVIKVYFEDTGKEVEIEAESKEEALEAAKRLAIELGLKIKKVEIYP	4.61 kcal/mol
KKKYVIKVYFEDTGKEVEIEAESKEEALEAAKRLAFELGLKIKKVEIYP	4.76 kcal/mol
KKKYVIKVYFEDTGKEVEIEAESKEEALEAAKRNAEELGLKIKKVEIYP	3.66 kcal/mol
KKKYVIKVYFEDTGKEVEIEAESKEEALEAAKRDAEELGLKIKKVEIYP	2.95 kcal/mol
KKKYVIKVYFEDTGKEVEIEAESNEEALEAAKRLAEELGLKIKKVEIYP	4.46 kcal/mol
KKKYVIKVYFEDTGKEVEIEAESWEEALEAAKRLAEELGLKIKKVEIYP	4.51 kcal/mol
KKKYVIKVYFEDTGKEVEIEAESVEEALEAAKRLAEELGLKIKKVEIYP	4.6 kcal/mol
KKKYVIKVYFEDTGKEHEIEAESKEEALEAAKRLAEELGLKIKKVEIYP	4.4 kcal/mol
KKKYVIKVYFEDTGKETEIEAESKEEALEAAKRLAEELGLKIKKVEIYP	4.29 kcal/mol
KKKYVIKVYFEDTGKEVEIEAESKEESLEAAKRLAEELGLKIKKVEIYP	4.03 kcal/mol
KKKYVIKVYFEDTGKEVEIEAESKEEMLEAAKRLAEELGLKIKKVEIYP	3.71 kcal/mol
KKKYVIKVYFEDTGKEVEIEAESKEEALEAAKRLAEECGLKIKKVEIYP	4.07 kcal/mol
KKKYVIKVYFEDTGKEVEIEAESKEEALEAAKRLAEENGLKIKKVEIYP	4.15 kcal/mol
KKKYVIKVYFEDTGKEVEIEAESKEEALEAAKRLAEEGGLKIKKVEIYP	3.85 kcal/mol
KKKYVIKVYFEDTGKEVEIEAESKEEALEAAKRLAEEHGLKIKKVEIYP	4.13 kcal/mol
KKKYVIKVYFEDTGKEVEIEAESKEEALEAAKRLAEEKGLKIKKVEIYP	4.2 kcal/mol
KKKYVIKVYFVDTGKEVEIEAESKEEALEAAKRLAEELGLKIKKVEIYP	4.83 kcal/mol
KKKYVIKVYFTDTGKEVEIEAESKEEALEAAKRLAEELGLKIKKVEIYP	4.48 kcal/mol
KKKYVIKVYFEDTGKEVEIEAESKEEALPAAKRLAEELGLKIKKVEIYP	3.83 kcal/mol
KKKYVIKVYFEDTGKEVEIEAESKIEALEAAKRLAEELGLKIKKVEIYP	4.27 kcal/mol
KKKYVIKVYFEDTGKEVEIEAESKHEALEAAKRLAEELGLKIKKVEIYP	4.39 kcal/mol
KKKYVIKVYFECTGKEVEIEAESKEEALEAAKRLAEELGLKIKKVEIYP	4.38 kcal/mol
KKKYVIKVYFEKTGKEVEIEAESKEEALEAAKRLAEELGLKIKKVEIYP	4.62 kcal/mol
KKKYVIKVYFEDTGKEVEIEAESKEEALEAAKRLAEELGLKIKKVECYP	4.13 kcal/mol

Variant	folding stability dG
KKKYVIKVYFEDTGKEVEIEAESKEEALEAAKRLAEELGLKIKKVEEYP	4.33 kcal/mol
KKKYVIKVYFEDTGKEVMIEAESKEEALEAAKRLAEELGLKIKKVEIYP	4.35 kcal/mol
KKKYVIKVYFEDTGKEVDIEAESKEEALEAAKRLAEELGLKIKKVEIYP	4.45 kcal/mol
KKKYVIKVYFEDTGKEVVIEAESKEEALEAAKRLAEELGLKIKKVEIYP	4.35 kcal/mol
KKKYVIKVYFEDTGKEVSIEAESKEEALEAAKRLAEELGLKIKKVEIYP	4.25 kcal/mol
KKKYVIKVYFEDTGKEVEIEAESKEEALEAAKRLAEELVLKIKKVEIYP	4.03 kcal/mol
KKKYVIKVYFEDTGKEVEIEAESKEEALEAAKRLAEELNLKIKKVEIYP	4.39 kcal/mol
KKKYVIKVYFEDTGKEVEIEAESKEEALEAAKRLAEELKLKIKKVEIYP	4.53 kcal/mol
KKKYVIKVYFEDTGKEVEIEAESKEEALEAAKRLAEELCLKIKKVEIYP	4.25 kcal/mol
KKKYVIKVYFEDTGKEVEIEAESKEEALEAAKRLAEELGLSIKKVEIYP	4.41 kcal/mol
KKKYVIKVYFEDTGKEVEIEAESKEEALEAAKRLAEELGLWIKKVEIYP	4.11 kcal/mol
KKKYVIKVYFEDTGKEVEIEAESKEEALEAAKRLAEELGLCIKKVEIYP	4.33 kcal/mol
KKKYVIKKYFEDTGKEVEIEAESKEEALEAAKRLAEELGLKIKKVEIYP	0.16 kcal/mol
KKKYVIKYYFEDTGKEVEIEAESKEEALEAAKRLAEELGLKIKKVEIYP	4.22 kcal/mol
KKKYVIFVYFEDTGKEVEIEAESKEEALEAAKRLAEELGLKIKKVEIYP	4.21 kcal/mol
KKKYVIKVYFEDTGKEVEIEAESKEEALEAAKRLAEELGLKIKKVEISP	4.2 kcal/mol
KKKYVIKVYFEDTGKEVEIEAESKEEALEAAKRLAEELGLKIKKVEIWP	4.51 kcal/mol
KKKYVIKVYFEDTGKEVEIEAESKEEALEAAKRLAEELGLKIKKVEIKP	4.2 kcal/mol
KKKVVIKVYFEDTGKEVEIEAESKEEALEAAKRLAEELGLKIKKVEIYP	4.58 kcal/mol
KKKTVIKVYFEDTGKEVEIEAESKEEALEAAKRLAEELGLKIKKVEIYP	3.74 kcal/mol
KKKPVIKVYFEDTGKEVEIEAESKEEALEAAKRLAEELGLKIKKVEIYP	2.44 kcal/mol
KKKYVIKVYFEDTGKRVEIEAESKEEALEAAKRLAEELGLKIKKVEIYP	4.22 kcal/mol
KKKYVIKVYFEDTGKFVEIEAESKEEALEAAKRLAEELGLKIKKVEIYP	4.5 kcal/mol
KKKYVIKVYFEDTGKTVEIEAESKEEALEAAKRLAEELGLKIKKVEIYP	4.45 kcal/mol
KKKYVIKVWFEDTGKEVEIEAESKEEALEAAKRLAEELGLKIKKVEIYP	4.86 kcal/mol
KRKYVIKVYFEDTGKEVEIEAESKEEALEAAKRLAEELGLKIKKVEIYP	4.48 kcal/mol
